How the values were obtained:
[1] = target: fusion protein PRM
[2] = target: fusion protein PRE
[3] = target: fusion protein PRI
[4] = target: fusion protein PRC
[5] = target: fusion protein PRP
[6] = target: fusion protein PRT
[7] = target: fusion protein PRW
[8] = target: fusion protein PRN
[9] = target: fusion protein PRD
[10] = target: fusion protein PRH
[11] = target: fusion protein PRL
[12] = target: fusion protein PRF
[13] = target: fusion protein PRA
[14] = target: fusion protein PRR
[15] = target: fusion protein PRS
fusion protein PRS, sequence (chain, as listed by the source): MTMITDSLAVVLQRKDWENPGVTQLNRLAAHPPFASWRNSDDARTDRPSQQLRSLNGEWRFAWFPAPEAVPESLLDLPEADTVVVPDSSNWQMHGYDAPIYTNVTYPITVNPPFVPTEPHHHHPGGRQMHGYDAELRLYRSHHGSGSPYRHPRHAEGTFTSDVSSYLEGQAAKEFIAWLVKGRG

[16] = target: fusion protein PRK
fusion protein PRK, sequence (chain, as listed by the source): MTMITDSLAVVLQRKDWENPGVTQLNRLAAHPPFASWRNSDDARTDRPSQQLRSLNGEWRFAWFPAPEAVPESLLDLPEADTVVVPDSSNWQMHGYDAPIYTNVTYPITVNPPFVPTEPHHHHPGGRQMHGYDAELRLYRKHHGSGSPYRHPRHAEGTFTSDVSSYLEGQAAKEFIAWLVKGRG

[17] = target: fusion protein PRG
fusion protein PRG, sequence (chain, as listed by the source): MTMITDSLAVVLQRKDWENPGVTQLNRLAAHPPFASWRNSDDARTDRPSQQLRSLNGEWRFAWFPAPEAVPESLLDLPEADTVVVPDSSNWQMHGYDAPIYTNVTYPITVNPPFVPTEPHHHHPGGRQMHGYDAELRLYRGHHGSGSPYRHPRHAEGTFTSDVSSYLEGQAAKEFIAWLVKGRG

[18] = target: fusion protein PRY
fusion protein PRY, sequence (chain, as listed by the source): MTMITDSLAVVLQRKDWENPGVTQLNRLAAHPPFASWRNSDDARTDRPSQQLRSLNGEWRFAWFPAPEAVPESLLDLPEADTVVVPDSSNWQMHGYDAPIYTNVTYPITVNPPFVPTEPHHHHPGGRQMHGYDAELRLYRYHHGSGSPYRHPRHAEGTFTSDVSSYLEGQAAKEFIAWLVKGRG

[19] = target: fusion protein PRQ
fusion protein PRQ, sequence (chain, as listed by the source): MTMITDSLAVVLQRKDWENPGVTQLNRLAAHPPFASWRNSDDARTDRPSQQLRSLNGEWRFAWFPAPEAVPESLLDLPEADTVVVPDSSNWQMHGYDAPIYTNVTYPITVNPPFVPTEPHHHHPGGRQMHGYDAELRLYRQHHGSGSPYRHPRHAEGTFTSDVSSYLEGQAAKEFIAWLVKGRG

Measured: relative cleavage efficiency

fusion protein PRT, sequence (chain, as listed by the source): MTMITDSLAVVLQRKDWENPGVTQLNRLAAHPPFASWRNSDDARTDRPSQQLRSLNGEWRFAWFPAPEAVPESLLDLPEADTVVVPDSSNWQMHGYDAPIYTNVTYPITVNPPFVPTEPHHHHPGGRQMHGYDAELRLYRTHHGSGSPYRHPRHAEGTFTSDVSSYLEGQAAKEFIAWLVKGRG
fusion protein PRF, sequence (chain, as listed by the source): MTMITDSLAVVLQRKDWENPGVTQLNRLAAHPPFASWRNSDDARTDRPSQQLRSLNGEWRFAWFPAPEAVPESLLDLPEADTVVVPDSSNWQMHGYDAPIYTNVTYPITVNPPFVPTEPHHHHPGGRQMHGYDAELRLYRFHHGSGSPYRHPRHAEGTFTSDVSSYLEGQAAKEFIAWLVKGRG
fusion protein PRR, sequence (chain, as listed by the source): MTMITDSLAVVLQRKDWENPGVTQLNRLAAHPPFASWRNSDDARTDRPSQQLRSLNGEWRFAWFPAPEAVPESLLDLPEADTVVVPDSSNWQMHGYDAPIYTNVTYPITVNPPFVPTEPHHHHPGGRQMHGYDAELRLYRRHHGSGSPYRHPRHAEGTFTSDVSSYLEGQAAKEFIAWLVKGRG
fusion protein PRC, sequence (chain, as listed by the source): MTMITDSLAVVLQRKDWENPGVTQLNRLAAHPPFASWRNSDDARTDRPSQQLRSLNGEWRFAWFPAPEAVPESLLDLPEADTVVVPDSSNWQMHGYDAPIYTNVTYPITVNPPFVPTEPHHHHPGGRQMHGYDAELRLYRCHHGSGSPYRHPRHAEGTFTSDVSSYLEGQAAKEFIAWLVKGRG
fusion protein PRE, sequence (chain, as listed by the source): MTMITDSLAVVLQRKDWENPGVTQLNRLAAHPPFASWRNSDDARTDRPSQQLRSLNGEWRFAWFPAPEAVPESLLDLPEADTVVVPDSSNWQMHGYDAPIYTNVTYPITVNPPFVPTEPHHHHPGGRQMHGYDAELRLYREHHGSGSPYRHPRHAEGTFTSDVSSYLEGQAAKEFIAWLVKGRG
fusion protein PRA, sequence (chain, as listed by the source): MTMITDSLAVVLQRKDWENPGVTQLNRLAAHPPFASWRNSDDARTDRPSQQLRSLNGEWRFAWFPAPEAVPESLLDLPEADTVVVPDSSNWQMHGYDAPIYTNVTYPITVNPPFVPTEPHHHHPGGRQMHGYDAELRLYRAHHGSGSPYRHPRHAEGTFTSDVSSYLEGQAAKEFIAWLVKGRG
fusion protein PRL, sequence (chain, as listed by the source): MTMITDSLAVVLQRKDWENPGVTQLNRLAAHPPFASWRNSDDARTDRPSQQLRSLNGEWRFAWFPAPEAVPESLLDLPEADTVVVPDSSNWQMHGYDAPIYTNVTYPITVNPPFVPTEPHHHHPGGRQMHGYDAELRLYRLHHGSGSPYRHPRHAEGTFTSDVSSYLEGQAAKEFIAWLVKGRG
fusion protein PRH, sequence (chain, as listed by the source): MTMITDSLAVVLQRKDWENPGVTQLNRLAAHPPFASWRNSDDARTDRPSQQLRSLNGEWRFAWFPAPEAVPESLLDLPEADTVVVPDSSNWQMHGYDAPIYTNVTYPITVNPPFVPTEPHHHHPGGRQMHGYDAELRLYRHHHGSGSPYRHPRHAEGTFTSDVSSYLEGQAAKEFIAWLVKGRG
fusion protein PRI, sequence (chain, as listed by the source): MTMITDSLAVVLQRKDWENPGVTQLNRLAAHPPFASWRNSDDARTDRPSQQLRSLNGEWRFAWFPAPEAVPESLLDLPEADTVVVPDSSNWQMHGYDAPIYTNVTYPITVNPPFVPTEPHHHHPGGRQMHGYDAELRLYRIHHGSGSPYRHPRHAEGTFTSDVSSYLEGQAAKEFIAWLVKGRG
fusion protein PRN, sequence (chain, as listed by the source): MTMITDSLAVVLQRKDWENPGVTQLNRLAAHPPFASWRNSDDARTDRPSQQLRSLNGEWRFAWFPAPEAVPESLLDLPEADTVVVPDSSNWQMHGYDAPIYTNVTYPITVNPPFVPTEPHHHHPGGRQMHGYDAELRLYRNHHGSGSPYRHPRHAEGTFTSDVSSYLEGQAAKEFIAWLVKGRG
fusion protein PRD, sequence (chain, as listed by the source): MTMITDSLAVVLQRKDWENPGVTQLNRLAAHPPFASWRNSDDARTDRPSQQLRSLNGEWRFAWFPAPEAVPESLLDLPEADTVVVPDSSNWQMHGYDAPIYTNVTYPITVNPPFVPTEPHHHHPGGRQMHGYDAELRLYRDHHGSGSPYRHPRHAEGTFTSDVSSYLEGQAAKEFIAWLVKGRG
fusion protein PRW, sequence (chain, as listed by the source): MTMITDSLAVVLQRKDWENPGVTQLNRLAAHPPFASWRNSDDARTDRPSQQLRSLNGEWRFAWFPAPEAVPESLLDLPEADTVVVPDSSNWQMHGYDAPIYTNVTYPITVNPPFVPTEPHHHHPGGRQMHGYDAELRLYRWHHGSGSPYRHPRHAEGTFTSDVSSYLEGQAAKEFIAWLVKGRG
fusion protein PRM, sequence (chain, as listed by the source): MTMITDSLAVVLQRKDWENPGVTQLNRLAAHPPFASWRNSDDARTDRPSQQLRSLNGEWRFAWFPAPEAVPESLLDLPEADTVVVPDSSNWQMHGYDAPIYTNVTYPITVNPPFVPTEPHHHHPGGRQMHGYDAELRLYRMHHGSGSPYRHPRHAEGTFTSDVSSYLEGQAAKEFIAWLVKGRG

B1: OmpT protease variant OmpT D97P (protein)
chain: STETLSFTPDNINADISLGTLSGKTKERVYLAEEGGRKVSQLDWKFNNAAIIKGAINWDLMPQISIGAAGWTTLGSRGGNMVDQDWMDSSNPGTWTPESRHPDTQLNYANEFDLNIKGWLLNEPNYRLGLMAGYQESRYSFTARGGSYIYSSEEGFRDDIGSFPNGERAIGYKQRFKMPYIGLTGSYRYEDFELGGTFKYSGWVESSDNDEHYDPGKRITYRSKVKDQNYYSVAVNAGYYVTPNAKVYVEGAWNRVTNKKGNTSLYDHNNNTSDYSKNGAGIENYNFITTAGLKYTF
less than 3.0%: all assays above

B2: OmpT protease variant OmpT D97W (protein)
chain: STETLSFTPDNINADISLGTLSGKTKERVYLAEEGGRKVSQLDWKFNNAAIIKGAINWDLMPQISIGAAGWTTLGSRGGNMVDQDWMDSSNPGTWTWESRHPDTQLNYANEFDLNIKGWLLNEPNYRLGLMAGYQESRYSFTARGGSYIYSSEEGFRDDIGSFPNGERAIGYKQRFKMPYIGLTGSYRYEDFELGGTFKYSGWVESSDNDEHYDPGKRITYRSKVKDQNYYSVAVNAGYYVTPNAKVYVEGAWNRVTNKKGNTSLYDHNNNTSDYSKNGAGIENYNFITTAGLKYTF
less than 3.0%: all assays above
